Measured values: PMC5451165, “Cellular levels of Grb2 and cytoskeleton stability are correlated in a neurodegenerative scenario” (Disease Models & Mechanisms, 2017)

B1: NOX4, endogenous in SHSY-5Y cells (natural protein, human (endogenous in SHSY-5Y), UniProt Q9NPH5 1-578, looked up)
chain: MAVSWRSWLANEGVKHLCLFIWLSMNVLLFWKTFLLYNQGPEYHYLHQMLGLGLCLSRASASVLNLNCSLILLPMCRTLLAYLRGSQKVPSRRTRRLLDKSRTFHITCGVTICIFSGVHVAAHLVNALNFSVNYSEDFVELNAARYRDEDPRKLLFTTVPGLTGVCMVVVLFLMITASTYAIRVSNYDIFWYTHNLFFVFYMLLTLHVSGGLLKYQTNLDTHPPGCISLNRTSSQNISLPEYFSEHFHEPFPEGFSKPAEFTQHKFVKICMEEPRFQANFPQTWLWISGPLCLYCAERLYRYIRSNKPVTIISVMSHPSDVMEIRMVKENFKARPGQYITLHCPSVSALENHPFTLTMCPTETKATFGVHLKIVGDWTERFRDLLLPPSSQDSEILPFIQSRNYPKLYIDGPFGSPFEESLNYEVSLCVAGGIGVTPFASILNTLLDDWKPYKLRRLYFIWVCRDIQSFRWFADLLCMLHNKFWQENRPDYVNIQLYLSQTDGIQKIIGEKYHALNSRLFIGRPRWKLLFDEIAKYNRGKTVGVFCCGPNSLSKTLHKLSNQNNSYGTRFEYNKESFS
notes: NOX4, endogenous in human neuroblastoma SHSY-5Y cells, detected with an anti-NOX4 antibody; source: endogenous, SHSY-5Y cell lysate
B2: NOX4, endogenous in mouse brain (natural protein, mouse (endogenous in mouse brain), UniProt Q9JHI8 1-578, looked up)
chain: MAVSWRSWLANEGVKHLCLLIWLSLNVLLFWKTFLLYNQGPEYYYIHQMLGLGLCLSRASASVLNLNCSLILLPMCRTVLAYLRGSQKVPSRRTRRLLDKSKTLHITCGVTICIFSGVHVAAHLVNALNFSVNYSEDFLELNAARYQNEDPRKLLFTTIPGLTGVCMVVVLFLMVTASTYAIRVSNYDIFWYTHNLFFVFYMLLLLHVSGGLLKYQTNVDTHPPGCISLNQTSSQNMSIPDYVSEHFHGSLPRGFSKLEDRYQKTLVKICLEEPKFQAHFPQTWIWISGPLCLYCAERLYRCIRSNKPVTIISVINHPSDVMELRMIKENFKARPGQYIILHCPSVSALENHPFTLTMCPTETKATFGVHFKVVGDWTERFRDLLLPPSSQDSEILPFIHSRNYPKLYIDGPFGSPFEESLNYEVSLCVAGGIGVTPFASILNTLLDDWKPYKLRRLYFIWVCRDIQSFQWFADLLCVLHNKFWQENRPDFVNIQLYLSQTDGIQKIIGEKYHTLNSRLFIGRPRWKLLFDEIAKCNRGKTVGVFCCGPSSISKTLHSLSNRNNSYGTKFEYNKESFS
notes: NOX4, endogenous in mouse brain (APP/PS1 and WT mice), detected with an anti-NOX4 antibody; source: endogenous, protein extracted from paraffin-embedded brain sections of APP/PS1 (AD) and WT mice

How the values were obtained:
Conditions in all cases: partners not purified
[1] = biological target: T1, Growth factor receptor bound protein 2 (Grb2), endogenous in SHSY-5Y cells (human (endogenous in SHSY-5Y), UniProt P62993 1-217); test: co-IP; IP for Grb2 from cell lysate, blot with anti-NOX4 (reverse: IP for NOX4, blot with anti-Grb2); cells under control (GFP, DMSO, DsRed), AD-inducing (AICD, Aβ, DsRed), reversal (AICD, Aβ, Grb2-DsRed) and Grb2 knock-down (U6-Grb2) conditions
T1 construct: Grb2, endogenous in human neuroblastoma SHSY-5Y cells, precipitated with an anti-Grb2 antibody; source: endogenous, SHSY-5Y cell lysate

Grb2-DsRed construct = biological target: T2, Grb2-DsRed construct (UniProt P62993 1-217); test: as above
T2 construct: Grb2 cloned into a DsRed-C1 vector; In the transfected cells endogenous Grb2 is present too, and the anti-Grb2 antibody would precipitate both; A C1 vector usually places the fluorescent protein at the N-terminus; source: SHSY-5Y, transiently transfected, in lysate

[2] = biological target: T3, Grb2, endogenous in mouse brain (mouse (endogenous in mouse brain), UniProt Q60631 1-217); test: co-IP; Grb2 pull down from protein extracted from paraffinized brain sections of AD (APP/PS1) and WT mice, probed with anti-NOX4 antibody
T3 construct: Grb2, endogenous in mouse brain (APP/PS1 and WT mice), precipitated with an anti-Grb2 antibody; source: endogenous, protein extracted from paraffin-embedded brain sections of APP/PS1 (AD) and WT mice
T3 sequence (Q60631 whole entry): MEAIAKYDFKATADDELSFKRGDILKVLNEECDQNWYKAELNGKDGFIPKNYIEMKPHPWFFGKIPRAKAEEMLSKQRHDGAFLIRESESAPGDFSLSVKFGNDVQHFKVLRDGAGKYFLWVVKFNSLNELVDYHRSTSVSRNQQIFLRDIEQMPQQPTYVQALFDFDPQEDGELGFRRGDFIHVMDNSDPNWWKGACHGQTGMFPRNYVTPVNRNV

T2 sequence (P62993 whole entry): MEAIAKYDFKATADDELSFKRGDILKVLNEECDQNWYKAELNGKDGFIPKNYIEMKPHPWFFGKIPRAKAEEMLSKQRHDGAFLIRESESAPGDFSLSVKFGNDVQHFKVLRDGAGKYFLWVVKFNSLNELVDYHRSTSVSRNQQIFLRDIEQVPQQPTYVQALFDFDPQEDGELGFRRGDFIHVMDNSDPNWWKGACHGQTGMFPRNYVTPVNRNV
T1 sequence (P62993 whole entry): as above

Row | Binder | fold change of the co-precipitated interaction, AD conditions (AICD + Aβ) relative to control [1] | fold change of the co-precipitated interaction, reversal condition (AICD + Aβ + Grb2-DsRed) relative to control (Grb2-DsRed construct) | fold change of the co-precipitated interaction, AD mouse brain relative to wild type [2]
1 | B1 | 1.42 fold | 2.18 fold | 
2 | B2 |  |  | 1.49 fold
